Target: the molecule itself
Experiment: cryo-EM structure; hAE2 in GDN, about 10 mg/mL; samples in KNO3 pH 7.25 to 6.55, Tris-HCl pH 8.32, NaCl, 50 mM NaHCO3, or DIDS with NaHCO3; C2 symmetry (one class C1)

B1: human anion exchanger 2 (AE2), residues 177-1241 (natural protein, UniProt P04920 177-1241, looked up)
chain: LPHQEATPRASKGAQAGTQVEEAEAEAVAVASGTAGGDDGGASGRPLPKAQPGHRSYNLQERRRIGSMTGAEQALLPRVPTDEIEAQTLATADLDLMKSHRFEDVPGVRRHLVRKNAKGSTQSGREGREPGPTPRARPRAPHKPHEVFVELNELLLDKNQEPQWRETARWIKFEEDVEEETERWGKPHVASLSFRSLLELRRTLAHGAVLLDLDQQTLPGVAHQVVEQMVISDQIKAEDRANVLRALLLKHSHPSDEKDFSFPRNISAGSLGSLLGHHHGQGAESDPHVTEPLMGGVPETRLEVERERELPPPAPPAGITRSKSKHELKLLEKIPENAEATVVLVGCVEFLSRPTMAFVRLREAVELDAVLEVPVPVRFLFLLLGPSSANMDYHEIGRSISTLMSDKQFHEAAYLADEREDLLTAINAFLDCSVVLPPSEVQGEELLRSVAHFQRQMLKKREEQGRLLPTGAGLEPKSAQDKALLQMVEAAGAAEDDPLRRTGRPFGGLIRDVRRRYPHYLSDFRDALDPQCLAAVIFIYFAALSPAITFGGLLGEKTQDLIGVSELIMSTALQGVVFCLLGAQPLLVIGFSGPLLVFEEAFFSFCSSNHLEYLVGRVWIGFWLVFLALLMVALEGSFLVRFVSRFTQEIFAFLISLIFIYETFYKLVKIFQEHPLHGCSASNSSEVDGGENMTWAGARPTLGPGNRSLAGQSGQGKPRGQPNTALLSLVLMAGTFFIAFFLRKFKNSRFFPGRIRRVIGDFGVPIAILIMVLVDYSIEDTYTQKLSVPSGFSVTAPEKRGWVINPLGEKSPFPVWMMVASLLPAILVFILIFMETQITTLIISKKERMLQKGSGFHLDLLLIVAMGGICALFGLPWLAAATVRSVTHANALTVMSKAVAPGDKPKIQEVKEQRVTGLLVALLVGLSIVIGDLLRQIPLAVLFGIFLYMGVTSLNGIQFYERLHLLLMPPKHHPDVTYVKKVRTLRMHLFTALQLLCLALLWAVMSTAASLAFPFILILTVPLRMVVLTRIFTDREMKCLDANEAEPVFDEREGVDEYNEMPMPV
notes: Anion exchanger 2 (AE2, SLC4A2), human; A TEV protease site lies between the N-terminal Flag-8xHis tags and AE2; Solubilised in LMNG/CHS/GDN and kept in GDN; Residues 1-319, 433-498, 643-672 and 856-893 are not modelled in the structures; also called hAE2; AE2^177-1241; source: Expi293 cells, transiently transfected, purified (anti-Flag beads, SEC in GDN)
- stoichiometry N: 2

Reference: article PMC10066210, “The structural basis of the pH-homeostasis mediated by the Cl^−/HCO3^− exchanger, AE2” (Nature Communications, 2023)
